# Biological target: T1, human PD-L1 (human, UniProt Q9NZQ7 19-238, limits assumed)
# T1 construct: also called hPD-L1
# Experiment: Octet-96 BLI; antigen not named, taken as human PD-L1
# T1 sequence (Q9NZQ7 19-238 limits assumed): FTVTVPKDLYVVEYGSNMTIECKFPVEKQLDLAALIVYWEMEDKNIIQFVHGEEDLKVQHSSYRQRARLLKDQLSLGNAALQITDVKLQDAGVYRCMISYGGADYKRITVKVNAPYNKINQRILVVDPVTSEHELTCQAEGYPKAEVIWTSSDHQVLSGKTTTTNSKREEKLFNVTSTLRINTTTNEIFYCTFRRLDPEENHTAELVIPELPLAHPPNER
row,Binder,Kd
1,"BhVH2/BhVL1 (antibody, V domains shown, Humanized Clone B; VH and VL cloned into vectors carrying constant regions (CH1-FC/CL), expressed in 293F cells; also called humanized Clone B, Bh VH2 + Bh VL1) VH: QGQLVQSGAEVKKPGASVKVSCKTSGFTFSSSYISWVRQAPGQGLEWMGWIYAGTGGTSYNQKFTGRVTMTVDTSTSTAYMELRSLRSDDTAVYYCARHEGKYWYFDVWGQGTTVTVSS VL: DIQMTQSPSSLSASVGDRVTITCSASSSVSYVHWYQQKPGKAPKPWIYDTSNLASGFPSRFSGSGSGTDYTLTISSLQPEDFATYYCHQRSSYPWTFGGGTKVEIK",1.13 nM
2,"BhVH2/BhVL8 (antibody, V domains shown, Humanized Clone B; constant regions (CH1-FC/CL) from the vector, expressed in 293F cells; also called humanized Clone B, Bh VH2 + Bh VL8) VH: QGQLVQSGAEVKKPGASVKVSCKTSGFTFSSSYISWVRQAPGQGLEWMGWIYAGTGGTSYNQKFTGRVTMTVDTSTSTAYMELRSLRSDDTAVYYCARHEGKYWYFDVWGQGTTVTVSS VL: EIVMTQSPATLSVSPGERATLSCSASSSVSYVHWYQQKPGQAPRPWIYDTSNLASGFPARFSGSGSGTEYTLTISSLQSEDAAVYYCHQRSSYPWTFGGGTKVEIK",1.18 nM
3,"BhVH5/BhVL7 (antibody, V domains shown, Humanized Clone B; constant regions (CH1-FC/CL) from the vector, expressed in 293F cells; also called humanized Clone B, Bh VH5 + Bh VL7) VH: QGQLVQSGAEVKKPGSSVKVSCKTSGFTFSSSYISWVRQAPGQGLEWMGWIYAGTGGTSYNQKFTGRVTITVDTSTSTAYMELSSLRSEDTAVYYCARHEGKYWYFDVWGQGTTVTVSS VL: EIVMTQSPATLSVSPGERATLSCSASSSVSYVHWYQQKPGQAPRLLIYDTSNLASGIPARFSGSGSGTEFTLTISSLQSEDFAVYYCHQRSSYPWTFGGGTKVEIK",0.4 nM
4,"BhVH2/BhVL7 (antibody, V domains shown, Humanized Clone B; constant regions (CH1-FC/CL) from the vector, expressed in 293F cells; also called humanized Clone B, Bh VH2 + Bh VL7) VH: QGQLVQSGAEVKKPGASVKVSCKTSGFTFSSSYISWVRQAPGQGLEWMGWIYAGTGGTSYNQKFTGRVTMTVDTSTSTAYMELRSLRSDDTAVYYCARHEGKYWYFDVWGQGTTVTVSS VL: EIVMTQSPATLSVSPGERATLSCSASSSVSYVHWYQQKPGQAPRLLIYDTSNLASGIPARFSGSGSGTEFTLTISSLQSEDFAVYYCHQRSSYPWTFGGGTKVEIK",0.942 nM
5,"BhVH5/BhVL8 (antibody, V domains shown, Humanized Clone B; constant regions (CH1-FC/CL) from the vector, expressed in 293F cells; also called humanized Clone B, Bh VH5 + Bh VL8) VH: QGQLVQSGAEVKKPGSSVKVSCKTSGFTFSSSYISWVRQAPGQGLEWMGWIYAGTGGTSYNQKFTGRVTITVDTSTSTAYMELSSLRSEDTAVYYCARHEGKYWYFDVWGQGTTVTVSS VL: EIVMTQSPATLSVSPGERATLSCSASSSVSYVHWYQQKPGQAPRPWIYDTSNLASGFPARFSGSGSGTEYTLTISSLQSEDAAVYYCHQRSSYPWTFGGGTKVEIK",0.619 nM
6,"BhVH3/BhVL3 (antibody, V domains shown, Humanized Clone B; constant regions (CH1-FC/CL) from the vector, expressed in 293F cells; also called humanized Clone B, Bh VH3 + Bh VL3) VH: QVQLVQSGAEVKKPGASVKVSCKTSGFTFSSSYISWVRQAPGQGLEWMGWIYAGTGGTSYNQKFTGRVTMTVDTSTSTAYMELRSLRSDDTAVYYCARHEGKYWYFDVWGQGTTVTVSS VL: DIQMTQSPSTLSASVGDRVTITCSASSSVSYVHWYQQKPGKAPKLLIYDTSNLASGVPSRFSGSGSGTEFTLTISSLQPDDFATYYCHQRSSYPWTFGGGTKVEIK",1.29 nM
7,"ChVH3/ChVL3 (antibody, V domains shown, Humanized Clone C; constant regions (CH1-FC/CL) from the vector, expressed in 293F cells; also called humanized Clone C, Ch VH3 + Ch VL3) VH: QVQLVQSGAEVKKPGASVKVSCKASGFNIKDTYMHWVRQAPGQGLEWIGRIDPANGNTKYDPKFQGRVTITTDTSANTAYMELSSLRSEDTAVYYCARGLGRWFAYWGQGTTVTVSS VL: DIQMTQSPSSLSASVGDRVTITCQASQDVSNAVAWYQQKPGKAPKLLIYSASNLYTGVPSRFSGSGSGTDFTFTISSLQPEDIATYYCQQHDSTPLTFGQGTKLELK",0.242 nM
8,"ChVH2/ChVL3 (antibody, V domains shown, Humanized Clone C; constant regions (CH1-FC/CL) from the vector, expressed in 293F cells; also called humanized Clone C, Ch VH2 + Ch VL3) VH: QVQLVQSGAEVKKPGASVKVSCKASGFNIKDTYMHWVRQAPGQGLEWIGRIDPANGNTKYDPKFQGRATITTDTSTNTAYLELSSLRSEDTAVYYCARGLGRWFAYWGQGTTVTVSS VL: DIQMTQSPSSLSASVGDRVTITCQASQDVSNAVAWYQQKPGKAPKLLIYSASNLYTGVPSRFSGSGSGTDFTFTISSLQPEDIATYYCQQHDSTPLTFGQGTKLELK",0.329 nM
9,"ChVH5/ChVL1 (antibody, V domains shown, Humanized Clone C; constant regions (CH1-FC/CL) from the vector, expressed in 293F cells; also called humanized Clone C, Ch VH5 + Ch VL1) VH: QVQLVQSGAEVKKPGASVKVSCKASGFNIKDTYMHWVRQAPGQRLEWIGRIDPANGNTKYSQKFQGRVTITRDTSASTAYMELSSLRSEDTAVYYCARGLGRWFAYWGQGTTVTVSS VL: DIQMTQSPSSLSASVGDRVTITCKASQDVSNAVAWYQQKPGKAPKLLIYSASNRYTGVPDRFSGSGSGTDFTFTISSLQPEDIATYYCQQHDSTPLTFGQGTKLELK",1.17 nM
10,"ChVH4/ChVL3 (antibody, V domains shown, Humanized Clone C; constant regions (CH1-FC/CL) from the vector, expressed in 293F cells; also called humanized Clone C, Ch VH4 + Ch VL3) VH: QVQLVQSGAEVKKPGASVKVSCKASGFNIKDTYMHWVRQAPGQGLEWIGRIDPANGNTKYDPKFQGRVTITTDTSASTAYLELSSLRSEDTAVYYCARGLGRWFAYWGQGTTVTVSS VL: DIQMTQSPSSLSASVGDRVTITCQASQDVSNAVAWYQQKPGKAPKLLIYSASNLYTGVPSRFSGSGSGTDFTFTISSLQPEDIATYYCQQHDSTPLTFGQGTKLELK",0.177 nM
11,"ChVH2/ChVL2 (antibody, V domains shown, Humanized Clone C; constant regions (CH1-FC/CL) from the vector, expressed in 293F cells; also called humanized Clone C, Ch VH2 + Ch VL2) VH: QVQLVQSGAEVKKPGASVKVSCKASGFNIKDTYMHWVRQAPGQGLEWIGRIDPANGNTKYDPKFQGRATITTDTSTNTAYLELSSLRSEDTAVYYCARGLGRWFAYWGQGTTVTVSS VL: DIQMTQSPSSLSASVGDRVTITCKASQDVSNAVAWYQQKPGKAPKLLIYSASNRYTGVPSRFSGSGSGTDFTFTISSLQPEDIATYYCQQHDSTPLTFGQGTKLELK",0.201 nM
12,"ChVH3/ChVL1 (antibody, V domains shown, Humanized Clone C; constant regions (CH1-FC/CL) from the vector, expressed in 293F cells; also called humanized Clone C, Ch VH3 + Ch VL1) VH: QVQLVQSGAEVKKPGASVKVSCKASGFNIKDTYMHWVRQAPGQGLEWIGRIDPANGNTKYDPKFQGRVTITTDTSANTAYMELSSLRSEDTAVYYCARGLGRWFAYWGQGTTVTVSS VL: DIQMTQSPSSLSASVGDRVTITCKASQDVSNAVAWYQQKPGKAPKLLIYSASNRYTGVPDRFSGSGSGTDFTFTISSLQPEDIATYYCQQHDSTPLTFGQGTKLELK",0.16 nM
13,"ChVH1/ChVL1 (antibody, V domains shown, Humanized Clone C; constant regions (CH1-FC/CL) from the vector, expressed in 293F cells; also called humanized Clone C, Ch VH1 + Ch VL1) VH: QVQLVQSGAEVKKPGASVKLSCTASGFNIKDTYMHWVKQRPGQGLEWIGRIDPANGNTKYDPKFQGKATITTDTSTNTAYLELSSLRSEDTAVYYCARGLGRWFAYWGQGTTVTVSS VL: DIQMTQSPSSLSASVGDRVTITCKASQDVSNAVAWYQQKPGKAPKLLIYSASNRYTGVPDRFSGSGSGTDFTFTISSLQPEDIATYYCQQHDSTPLTFGQGTKLELK",0.255 nM
14,"Chimeric D (antibody, V domains shown, also called chimeric Clone D) VH: EVQLQQSGPELVKPGASMKISCKASGYSFTGYTMNWVKQSHGKNLEWIGLIIPYNGGISYNQKFKDKATLTVDKSSSTAYMELLSLTSEDSAVYYCASLITTAPRDSMDYWGQGTSVTVSS VL: DIQMTQTTSSLSASLGDRVTISCRASQDISNYLNWYQQKPDGSVKLLIYYTSKLHSGVPSRFSGSGSGTDYSLTISNLEQEDIATYFCQQGDALPWTFGGGTKLEIK",3.68 nM
15,"DhVH2/DhVL2 (antibody, V domains shown, Humanized Clone D; constant regions from the vector, 293F cells; also called humanized Clone D, Dh VH2 + Dh VL2) VH: QVQLVQSGAEVKKPGASVKVSCKASGYSFTGYTMNWVKQAHGQGLEWMGLIIPYNGGISYNQKFKDRVTMTVDTSISTAYMELSRLRSDDTAVYYCASLITTAPRDSMDYWGQGTLVTVSS VL: DIQMTQSPSSLSASVGDRVTITCRASQDISNYLNWYQQKPGKAPKLLIYYTSKLHSGVPSRFSGSGSGTDFTLTISSLQPEDIATYYCQQGDALPWTFGGGTKVEIK",11.8 nM
16,"DhVH3/DhVL1 (antibody, V domains shown, Humanized Clone D; constant regions from the vector, 293F cells; also called humanized Clone D, Dh VH3 + Dh VL1) VH: QVQLVQSGAEVKKPGASVKVSCKASGYSFTGYTMNWVRQAPGQGLEWMGLIIPYNGGISYNQKFKDRVTMTVDTSISTAYMELSRLRSDDTAVYYCASLITTAPRDSMDYWGQGTLVTVSS VL: DIQMTQSTSSLSASVGDRVTITCRASQDISNYLNWYQQKPGGAPKLLIYYTSKLHSGVPSRFSGSGSGTDYTLTISSLQQEDIATYYCQQGDALPWTFGGGTKVEIK",9.09 nM
17,"DhVH-CDR graft/ DhVL-CDR graft (antibody, V domains shown, also called CDR-grafted humanized Clone D) VH: QVQLVQSGAEVKKPGASVKVSCKASGYSFTGYTMNWVRQAPGQGLEWMGLIIPYNGGISYNQKFKDRVTMTRDTSISTVYMELSRLRSDDTAVYYCASLITTAPRDSMDYWGQGTLVTVSS VL: DIQMTQSPSSLSASVGDRVTITCRASQDISNYLNWYQQKPGKAPKLLIYYTSKLHSGVPSRFSGSGSGTDFTFTISSLQPEDIATYYCQQGDALPWTFGGGTKVEIK",10.3 nM
18,"DhVH2/DhVL1 (antibody, V domains shown, Humanized Clone D; constant regions from the vector, 293F cells; also called humanized Clone D, Dh VH2 + Dh VL1) VH: QVQLVQSGAEVKKPGASVKVSCKASGYSFTGYTMNWVKQAHGQGLEWMGLIIPYNGGISYNQKFKDRVTMTVDTSISTAYMELSRLRSDDTAVYYCASLITTAPRDSMDYWGQGTLVTVSS VL: DIQMTQSTSSLSASVGDRVTITCRASQDISNYLNWYQQKPGGAPKLLIYYTSKLHSGVPSRFSGSGSGTDYTLTISSLQQEDIATYYCQQGDALPWTFGGGTKVEIK",1.27 nM
19,"DhVH3/DhVL2 (antibody, V domains shown, Humanized Clone D; constant regions from the vector, 293F cells; also called humanized Clone D, Dh VH3 + Dh VL2) VH: QVQLVQSGAEVKKPGASVKVSCKASGYSFTGYTMNWVRQAPGQGLEWMGLIIPYNGGISYNQKFKDRVTMTVDTSISTAYMELSRLRSDDTAVYYCASLITTAPRDSMDYWGQGTLVTVSS VL: DIQMTQSPSSLSASVGDRVTITCRASQDISNYLNWYQQKPGKAPKLLIYYTSKLHSGVPSRFSGSGSGTDFTLTISSLQPEDIATYYCQQGDALPWTFGGGTKVEIK",1.67 nM
20,"DhVH1/DhVL1 (antibody, V domains shown, Humanized Clone D; constant regions (CH1-FC/CL) from the vector, 293F cells; also called humanized Clone D, Dh VH1 + Dh VL1) VH: QVQLVQSGAEVKKPGASVKVSCKASGYSFTGYTMNWVKQSHGQGLEWIGLIIPYNGGISYNQKFKDRATLTVDTSSSTAYMELSRLRSDDTAVYYCASLITTAPRDSMDYWGQGTLVTVSS VL: DIQMTQSTSSLSASVGDRVTITCRASQDISNYLNWYQQKPGGAPKLLIYYTSKLHSGVPSRFSGSGSGTDYTLTISSLQQEDIATYYCQQGDALPWTFGGGTKVEIK",11.1 nM
21,"DhVH1/DhVL2 (antibody, V domains shown, Humanized Clone D; constant regions from the vector, 293F cells; also called humanized Clone D, Dh VH1 + Dh VL2) VH: QVQLVQSGAEVKKPGASVKVSCKASGYSFTGYTMNWVKQSHGQGLEWIGLIIPYNGGISYNQKFKDRATLTVDTSSSTAYMELSRLRSDDTAVYYCASLITTAPRDSMDYWGQGTLVTVSS VL: DIQMTQSPSSLSASVGDRVTITCRASQDISNYLNWYQQKPGKAPKLLIYYTSKLHSGVPSRFSGSGSGTDFTLTISSLQPEDIATYYCQQGDALPWTFGGGTKVEIK",12.4 nM

# Source: patent publication US20230340142A1 (SUZHOU NEOLOGICS BIOSCIENCE, published 2023)
